B1: porcine urotensin II-1 (peptide)
peptide: GPTSECFWKYCV
B2: human urotensin II (peptide)
peptide: ETPDCFWKYCV

Assays:
[1] = target: monoclonal antibody AUII103-5-41a; experiment: competitive EIA: unlabelled peptide displaces biotinylated goby urotensin II from captured antibody
[2] = target: monoclonal antibody AUII103-5-41a; experiment: competitive EIA; ratio of the antigen levels giving (B/B0)=0.5 (0.68 nM / 17.4 nM)
[3] = target: monoclonal antibody AUII5-6-10a; experiment: competitive EIA: unlabelled peptide displaces biotinylated goby urotensin II from captured antibody
[4] = target: these two hybridoma culture supernatants; experiment: competitive EIA against biotinylated goby urotensin II

Binder	IC50 [1] [nM]	ratio of reactivity with human urotensin II to reactivity with porcine urotensin II-1 [2] [time]	IC50 [3] [nM]	IC50 [4] [nM]	human urotensin II level at (B/B0)=0.9 [4] [nM]
B1	17.4				
B2	0.68	0.04	1.2	0.5 to 2	0.2

Reference: patent publication US20060051344A1
